From patent US20170315124A1 (ATTOGEN BIOMEDICAL SUZHOU, published 2017)

Key:
[1] = biological target: T1, GST-HPV16 L2 fusion protein (HPV16, UniProt P03107 1-473); test: indirect ELISA on coated antigen
T1 construct: Specificity control antigen in the ELISA; also called recombinant protein HPV16 L2; not shown: glutathione S-transferase (GST) fusion partner
T1 sequence: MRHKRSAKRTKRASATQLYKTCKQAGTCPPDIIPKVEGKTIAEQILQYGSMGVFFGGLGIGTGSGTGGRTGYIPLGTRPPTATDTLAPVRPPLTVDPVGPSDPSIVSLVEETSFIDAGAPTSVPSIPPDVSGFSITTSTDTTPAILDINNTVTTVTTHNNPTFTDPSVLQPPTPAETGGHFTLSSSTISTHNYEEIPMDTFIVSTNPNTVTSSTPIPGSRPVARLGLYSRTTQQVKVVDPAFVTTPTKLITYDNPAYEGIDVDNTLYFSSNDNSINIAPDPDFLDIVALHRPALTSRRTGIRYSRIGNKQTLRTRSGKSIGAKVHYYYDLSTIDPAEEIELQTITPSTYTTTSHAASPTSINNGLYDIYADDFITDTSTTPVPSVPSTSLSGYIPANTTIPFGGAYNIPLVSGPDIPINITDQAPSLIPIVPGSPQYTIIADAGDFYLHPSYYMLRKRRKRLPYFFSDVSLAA

[2] = biological target: T2, polypeptide HPV16 E7-1 (HPV16); test: indirect ELISA on coated peptide
T2 peptide: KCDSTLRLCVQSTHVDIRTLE

[3] = biological target: T3, His-HPV16 E7 recombinant fusion protein (HPV16, UniProt P03129 2-98); test: indirect ELISA, method of Beatty et al.; reference 2G7
T3 construct: also called recombinant protein HPV16 E7; not shown: His tag
T3 sequence: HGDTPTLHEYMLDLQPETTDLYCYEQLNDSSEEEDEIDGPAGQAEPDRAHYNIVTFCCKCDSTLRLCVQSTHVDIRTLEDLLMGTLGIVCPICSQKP

[4] = biological target: T3, His-HPV16 E7 recombinant fusion protein; test: indirect ELISA, method of Beatty et al.; reference 1H11
[5] = biological target: T3, His-HPV16 E7 recombinant fusion protein; test: indirect ELISA, method of Beatty et al.; His-HPV16 E7 coated at 4 concentrations, 7B6 in 8 two-fold dilutions from 2 µg/ml; mean of 6 K values

B1: anti-HPV16 E7 monoclonal antibody 7B6 (antibody, V domains shown)
VH: VKLQESGPELVKPGASMKISCKASGYSFTGSTMNWVKQSHGKNLEWIGLIDPYNGVIRYNQKFKGRATLTIDKSSSTAYMELLSLTSDDSAVYYCARKLRYWGQGTTLTVSS
VL: ATQSPSSLNVSPGEKVTMSCKSSQSLLNSGNQRNYLAWYQQKPGQPPKLLIYGASTRESGVPDRFTGSGSGTDFTLTISSVQAEDLAVYYCQNDLSYPLTFGAGTKLELK
notes: also called mAb anti-HPV16E7 7B6
[1]
  binding result: no binding (tested: 7B6 1 µg/ml; antigen coated at 2 µg/ml)
[2]
  binding result: no binding
[3]
  fold of binding affinity over 2G7: 2 fold
[4]
  fold of binding affinity over 1H11: 5 fold
[5]
  Kd: 0.64 nM
